Measurements as given in PMC4871238.

Biological target: native Dictyostelium discoideum pre-60S ribosomal subunit (Dictyostelium discoideum) (UniProt P34113)
Assay: cryo-EM structure

Chain of Dictyostelium discoideum eIF6 (eukaryotic initiation factor 6), endogenous (Q551M2 whole entry): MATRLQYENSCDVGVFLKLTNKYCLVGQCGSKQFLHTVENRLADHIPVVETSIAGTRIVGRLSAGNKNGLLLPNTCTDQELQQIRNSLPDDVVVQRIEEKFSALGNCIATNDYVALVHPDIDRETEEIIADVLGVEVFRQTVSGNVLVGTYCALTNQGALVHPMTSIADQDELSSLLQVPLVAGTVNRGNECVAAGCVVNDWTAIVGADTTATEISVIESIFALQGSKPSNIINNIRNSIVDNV
Chain of native Dictyostelium discoideum pre-60S ribosomal subunit (Dictyostelium discoideum) (P34113 whole entry, looked up, tested part not stated): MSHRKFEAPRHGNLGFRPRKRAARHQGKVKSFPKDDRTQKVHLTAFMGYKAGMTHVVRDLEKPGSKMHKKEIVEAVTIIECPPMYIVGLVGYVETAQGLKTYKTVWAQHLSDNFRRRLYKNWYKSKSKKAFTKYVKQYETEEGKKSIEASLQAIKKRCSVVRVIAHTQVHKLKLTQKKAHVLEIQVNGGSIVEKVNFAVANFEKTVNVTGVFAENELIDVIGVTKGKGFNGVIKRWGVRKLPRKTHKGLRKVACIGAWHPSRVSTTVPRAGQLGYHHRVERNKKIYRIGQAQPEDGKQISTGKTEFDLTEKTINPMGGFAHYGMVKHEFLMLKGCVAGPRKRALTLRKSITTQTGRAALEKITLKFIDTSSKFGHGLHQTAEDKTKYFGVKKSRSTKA

percent of native pre-60S subunits carrying eIF6: 85%
Substance: Dictyostelium discoideum eIF6 (eukaryotic initiation factor 6), endogenous (from UniProt Q551M2 1-244) (natural protein)
